Test results: doi:10.1101/2025.11.15.688632

Target: pseudo wild-type full-length CREB (unlabelled) (UniProt P16220)
Assay: SEC-MALS

stoichiometry N: 2
Substance: pseudo wild-type full-length CREB (unlabelled) (from UniProt P16220-2 1-327) (natural protein)
